# Columns and labels:
# Type in all cases: biochemical
# [1] = Carboxylate reductase activity assay, pimelate semialdehyde to heptanedial (NADPH consumption, absorbance at 340 nm); conditions: purified enzyme enhanced by the gene product of sfp, 2 mM pimelate semialdehyde, 1 mM ATP, 1 mM NADPH, pH=7.5, room temperature, 20 min; against the empty vector control; FIG. 13
# Protocol: The N-terminal His-tagged carboxylate reductase of SEQ ID NO 7 (see Example 4 and FIG. 7F) was assayed using pimelate semialdehyde as substrate. The enzyme activity assay was performed in triplicate in a buffer composed of a final concentration of 50 mM HEPES buffer (pH=7.5), 2 mM pimelate semialdehyde, 10 mM MgCl2, 1 mM ATP and 1 mM NADPH. The enzyme activity assay reaction was initiated by adding purified carboxylate reductase and phosphopantetheine transferase or the empty vector control to the assay buffer containing the pimelate semialdehyde and then incubated at room temperature for 20 min. The consumption of NADPH was monitored by absorbance at 340 nm.
# [2] = Carboxylate reductase activity assay, pimelate to pimelate semialdehyde (NADPH consumption, absorbance at 340 nm); conditions: purified enzyme enhanced by the gene product of sfp, 2 mM pimelate, 1 mM ATP, 1 mM NADPH, pH=7.5, room temperature, 20 min; against the empty vector control; FIG. 10
# Protocol: A sequence encoding a HIS-tag was added to the genes from Segniliparus rugosus and Segniliparus rotundus that encode the carboxylate reductases of SEQ ID NOs: 4 and 7, respectively (see FIGS. 7C and 7F), such that N-terminal HIS tagged carboxylate reductases could be produced. Each of the modified genes was cloned into a pET Duet expression vector along with a sfp gene encoding a HIS-tagged phosphopantetheine transferase from Bacillus subtilis, both under the T7 promoter. Each expression vector was transformed into a BL21[DE3] E. coli host and the resulting recombinant E. coli strains were cultivated at 37° C. in a 250 mL shake flask culture containing 50 mL LB media and antibiotic selection pressure, with shaking at 230 rpm. Each culture was induced overnight at 37° C. using an auto-induction media.
# The pellet from each induced shake flask culture was harvested via centrifugation. Each pellet was resuspended and lysed via sonication, and the cell debris was separated from the supernatant via centrifugation. […]
# Enzyme activity assays (i.e., from pimelate to pimelate semialdehyde) were performed in triplicate in a buffer composed of a final concentration of 50 mM HEPES buffer (pH=7.5), 2 mM pimelate, 10 mM MgCl2, 1 mM ATP and 1 mM NADPH. […] The consumption of NADPH was monitored by absorbance at 340 nm.
# [3] = Carboxylate reductase activity assay, N7-acetyl-7-aminoheptanoate to N7-acetyl-7-aminoheptanal (NADPH consumption, absorbance at 340 nm); conditions: purified enzyme enhanced by the gene product of sfp, 2 mM N7-acetyl-7-aminoheptanoate, 1 mM ATP, 1 mM NADPH, pH=7.5, room temperature, 20 min; against the empty vector control; FIG. 12
# Protocol: The activity of each of the N-terminal His-tagged carboxylate reductases of SEQ ID NOs: 3, 6, and 7 (see Examples 4, and FIGS. 7B, 7E, and 7F) for converting N7-acetyl-7-aminoheptanoate to N7-acetyl-7-aminoheptanal was assayed in triplicate in a buffer composed of a final concentration of 50 mM HEPES buffer (pH=7.5), 2 mM N7-acetyl-7-aminoheptanoate, 10 mM MgCl2, 1 mM ATP, and 1 mM NADPH. The assays were initiated by adding purified carboxylate reductase and phosphopantetheine transferase or the empty vector control to the assay buffer containing the N7-acetyl-7-aminoheptanoate then incubated at room temperature for 20 min. The consumption of NADPH was monitored by absorbance at 340 nm.
molecule,measurement,setting,value
"SEQ ID NO 7: Segniliparus rotundus carboxylate reductase, Genbank Accession No. ADG98140.1 (protein, listed as Segniliparus rotundus) MTQSHTQGPQASAAHSRLARRAAELLATDPQAAATLPDPEVVRQATRPGLRLAERVDAILSGYADRPALGQRSFQTVKDPITGRSSVELLPTFDTITYRELRERATAIASDLAHHPQAPAKPGDFLASIGFISVDYVAIDIAGVFAGLTAVPLQTGATLATLTAITAETAPTLFAASIEHLPTAVDAVLATPSVRRLLVFDYRAGSDEDREAVEAAKRKIADAGSSVLVDVLDEVIARGKSAPKAPLPPATDAGDDSLSLLIYTSGSTGTPKGAMYPERNVAHFWGGVWAAAFDEDAAPPVPAINITFLPLSHVASRLSLMPTLARGGLMHFVAKSDLSTLFEDLKLARPTNLFLVPRVVEMLYQHYQSELDRRGVQDGTREAEAVKDDLRTGLLGGRILTAGFGSAPLSAELAGFIESLLQIHLVDGYGSTEAGPVWRDGYLVKPPVTDYKLIDVPELGYFSTDSPHPRGELAIKTQTILPGYYKRPETTAEVFDEDGFYLTGDVVAQIGPEQFAYVDRRKNVLKLSQGEFVTLAKLEAAYSSSPLVRQLFVYGSSERSYLLAVIVPTPDALKKFGVGEAAKAALGESLQKIARDEGLQSYEVPRDFIIETDPFTVENGLLSDARKSLRPKLKEHYGERLEAMYKELADGQANELRDIRRGVQQRPTLETVRRAAAAMLGASAAEIKPDAHFTDLGGDSLSALTFSNFLHDLFEVDVPVGVIVSAANTLGSVAEHIDAQLAGGRARPTFATVHGKGSTTIKASDLTLDKFIDEQTLEAAKHLPKPADPPRTVLLTGANGWLGRFLALEWLERLAPAGGKLITIVRGKDAAQAKARLDAAYESGDPKLAGHYQDLAATTLEVLAGDFSEPRLGLDEATWNRLADEVDFISHPGALVNHVLPYNQLFGPNVAGVAEIIKLAITTRIKPVTYLSTVAVAAGVEPSALDEDGDIRTVSAERSVDEGYANGYGNSKWGGEVLLREAHDRTGLPVRVFRSDMILAHQKYTGQVNATDQFTRLVQSLLATGLAPKSFYELDAQGNRQRAHYDGIPVDFTAESITTLGGDGLEGYRSYNVFNPHRDGVGLDEFVDWLIEAGHPITRIDDYDQWLSRFETSLRGLPESKRQASVLPLLHAFARPGPAVDGSPFRNTVFRTDVQKAKIGAEHDIPHLGKALVLKYADDIKQLGLL",carboxylate reductase activity for converting pimelate semialdehyde to heptanedial,[1],accepted pimelate semialdehyde as substrate
same,carboxylate reductase activity for converting pimelate to pimelate semialdehyde,[2],accepted pimelate as substrate
same,carboxylate reductase activity for converting N7-acetyl-7-aminoheptanoate to N7-acetyl-7-aminoheptanal,[3],accepted N7-acetyl-7-aminoheptanoate as substrate
